According to US20200071424A1 (SHIONOGI, published 2020):

T1: human [1-305]-mouse chimeric EL (human; mouse, UniProt Q9WVG5 306-500)
T1 construct: Heparin extract, captured or detected by an anti-C2-tag antibody; also called human-mouse chimeric EL
T1 sequence: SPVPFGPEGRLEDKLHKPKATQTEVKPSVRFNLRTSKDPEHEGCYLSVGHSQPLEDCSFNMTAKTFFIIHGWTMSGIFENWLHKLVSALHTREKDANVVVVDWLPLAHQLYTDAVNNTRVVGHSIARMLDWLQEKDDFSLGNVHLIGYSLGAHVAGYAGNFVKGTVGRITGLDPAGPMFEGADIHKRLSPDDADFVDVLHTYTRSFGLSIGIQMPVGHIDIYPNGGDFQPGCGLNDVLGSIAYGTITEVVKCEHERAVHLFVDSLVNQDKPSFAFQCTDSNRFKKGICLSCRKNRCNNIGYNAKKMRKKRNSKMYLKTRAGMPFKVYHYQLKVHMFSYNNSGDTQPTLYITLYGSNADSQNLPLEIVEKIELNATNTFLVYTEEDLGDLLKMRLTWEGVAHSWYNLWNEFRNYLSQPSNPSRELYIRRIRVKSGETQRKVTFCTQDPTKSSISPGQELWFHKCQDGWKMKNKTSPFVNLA


Assays:
cynomolgus monkey EL = cynomolgus monkey EL (cynomolgus monkey); assay: cell-based or functional assay
[1] = molecular target: T1, human [1-305]-mouse chimeric EL; assay: Biacore; EL captured by anti-C2-tag Ab; bivalent fit
Experimental: The binding affinities of anti-EL antibodies were measured using Biacore. […] Then, anti-EL humanized antibodies were added and the binding affinities were calculated by bivalent fitting of BIAevaluation software.

[2] = molecular target: T1, human [1-305]-mouse chimeric EL; assay: cell-based or functional assay

Row | Neutralizing activity IC50 (cynomolgus monkey EL) [nM] | Kd [1] [nM] | koff [1] [s⁻¹] | kon [1] [M⁻¹ s⁻¹] | Neutralizing activity IC50 [2] [nM] | Binder
1 | 12 |  |  |  |  | h53A11-S4 (antibody, V domains shown) VH: QVQLVQSGAEVKKPGASVKVSCKASGYTFTDYTMHWVRQAPGQRLEWMGGINPYYGGTTYNEKFKDRVTITRDTSASTAYMELSSLRSEDTAVYYCARGDYYGGSYNYWGQGTTVTVSS VL: EIVMTQSPATLSVSPGERATLSCRASQDISNSLHWYQQKPGQAPRLLIKYASQSISGIPARFSGSGSGTEFTLTISSLQSEDFAVYYCQQSNSWPYTFGQGTKLEIK
2 |  | 0.11 | 1.6e-05 | 140000 | 1.3 | h55A1-F5 (antibody, V domains shown, humanized) VH: QVQLVQSGAEVKKPGASVKVSCKASGYTFTNYGMNWVRQAPGQGLEWMGWINTYSGVPTYAGDFKGRFTFTLDTSTSTAYMELSSLRSEDTAVYYCARRGYYGRRYFDVWGKGTTVTVSS VL: DIQLTQSPSSLSASVGDRVTITCKASQSVDYDVDSYMHWYQQKPGKAPKLLIYAASNLASGVPSRFSGSGSGTDFTLTISSLQPEDFATYYCQQTIEDPPTFGGGTKVEIK
3 |  | 0.17 | 2.6e-05 | 160000 | 2.1 | h55A1-F2 (antibody, V domains shown, humanized) VH: QVQLVQSGAEVKKPGASVKVSCKASGYTFTNYGMNWVRQAPGQGLEWMGWINTYSGVPTYAGDFKGRVTMTTDTSTSTAYMELRSLRSDDTAVYYCARRGYYGRRYFDVWGKGTTVTVSS VL: EIVMTQSPATLSVSPGERATLSCKASQSVDYDVDSYMHWYQQKPGQAPRLLIYAASNLASGIPARFSGSGSGTEFTLTISSLQSEDFAVYYCQQTIEDPPTFGGGTKVEIK
4 |  | 0.3 | 4.8e-05 | 160000 | 2.3 | h55A1-F6 (antibody, V domains shown, humanized) VH: QVQLVQSGAEVKKPGASVKVSCKASGYTFTNYGMNWVRQAPGQGLEWMGWINTYSGVPTYAGDFKGRFTFTLDTSTSTAYMELSSLRSEDTAVYYCARRGYYGRRYFDVWGKGTTVTVSS VL: EIVMTQSPATLSVSPGERATLSCKASQSVDYDVDSYMHWYQQKPGQAPRLLIYAASNLASGIPARFSGSGSGTEFTLTISSLQSEDFAVYYCQQTIEDPPTFGGGTKVEIK
5 |  | 0.084 | 1.7e-05 | 200000 | 1.9 | h55A1-F1 (antibody, V domains shown, humanized) VH: QVQLVQSGSELKKPGASVKVSCKASGYTFTNYGMNWVRQAPGQGLEWMGWINTYSGVPTYAGDFKGRFVFSLDTSVSTAYLQISSLKAEDTAVYYCARRGYYGRRYFDVWGKGTTVTVSS VL: DIQLTQSPSSLSASVGDRVTITCKASQSVDYDVDSYMHWYQQKPGKAPKLLIYAASNLASGVPSRFSGSGSGTDFTFTISSLQPEDIATYYCQQTIEDPPTFGGGTKVEIK
6 |  | 0.22 | 3e-05 | 140000 | 2.4 | h55A1-F4 (antibody, V domains shown, humanized) VH: QVQLVQSGAEVKKPGASVKVSCKASGYTFTNYGMNWVRQAPGQGLEWMGWINTYSGVPTYAGDFKGRVTMTTDTSTSTAYMELRSLRSDDTAVYYCARRGYYGRRYFDVWGKGTTVTVSS VL: EIVLTQSPGTLSLSPGERATLSCKASQSVDYDVDSYMHWYQQKPGQAPRLLIYAASNLASGIPDRFSGSGSGTDFTLTISRLEPEDFAVYYCQQTIEDPPTFGGGTKVEIK
7 |  | 0.29 | 3.3e-05 | 110000 | 1.1 | h55A1-F3 (antibody, V domains shown, humanized) VH: QVQLVQSGAEVKKPGASVKVSCKASGYTFTNYGMNWVRQAPGQGLEWMGWINTYSGVPTYAGDFKGRVTMTTDTSTSTAYMELRSLRSDDTAVYYCARRGYYGRRYFDVWGKGTTVTVSS VL: DIQLTQSPSSLSASVGDRVTITCKASQSVDYDVDSYMHWYQQKPGKAPKLLIYAASNLASGVPSRFSGSGSGTDFTLTISSLQPEDFATYYCQQTIEDPPTFGGGTKVEIK
8 |  | 5.2 | 0.0002 | 38000 | 2.3 | h16B3-F1 (antibody, V domains shown, humanized) VH: EVQLVESGGGLVQPGGSLRLSCAASGFTFSGYTMSWVRQAPGKGLEWVSEISFARDRAFYPDTVKGRFTISRDNSKNTLYLQMNSLRAEDTAVYYCARLGGRNHDYWYFDVWGQGTTVTVSS VL: DIQMTQSPSSLSASVGDRVTITCRASESVEYYGTSLMQWYQQKPGKAPKLLIYAASNVESGVPSRFSGSGSGTDFTLTISSLQPEDFATYYCQQSWKVPFTFGQGTKLEIK
9 |  | 3.8 | 0.00011 | 29000 | 2.4 | h16B3-F2 (antibody, V domains shown, humanized) VH: EVQLVESGGGLVQPGGSLRLSCAASGFTFSGYTMSWVRQAPGKGLEWVSEISFARDRAFYPDTVKGRFTISRDNSKNTLYLQMNSLRAEDTAVYYCARLGGRNHDYWYFDVWGQGTTVTVSS VL: EIVMTQSPATLSVSPGERATLSCRASESVEYYGTSLMQWYQQKPGQAPRLLIYAASNVESGIPARFSGSGSGTEFTLTISSLQSEDFAVYYCQQSWKVPFTFGQGTKLEIK
10 |  | 10 | 0.0002 | 19000 | 2 | h16B3-F3 (antibody, V domains shown, humanized) VH: EVQLVESGGGLVQPGGSLRLSCAASGFTFSGYTMSWVRQAPGKGLEWVSEISFARDRAFYPDTVKGRFTISRDNSKNTLYLQMNSLRAEDTAVYYCARLGGRNHDYWYFDVWGQGTTVTVSS VL: EIVLTQSPGTLSLSPGERATLSCRASESVEYYGTSLMQWYQQKPGQAPRLLIYAASNVESGIPDRFSGSGSGTDFTLTISRLEPEDFAVYYCQQSWKVPFTFGQGTKLEIK
11 |  | 5.1 | 0.00055 | 110000 | 1 | h55A1-S7 (antibody, V domains shown, humanized) VH: QVQLVQSGSELKKPGASVKVSCKASGYTFTNYALNWVRQAPGQGLEWMGWINTYSGVGTYAGEFKGRFVFSLDTSVSTAYLQISSLKAEDTAVYYCARRGFYGRRFFDVWGKGTTVTVSS VL: DIVLTQSPASLAVSPGQRATITCKASQSVDYDVDSYMHWYQQKPGQPPKLLIYAASNLASGVPARFSGSGSGTDFTLTINPVEANDTANYYCQNTIEDPPTFGGGTKVEIK
